What was measured:
[1] = molecular target: Class F flavodiiron protein CD1623 from Clostridium difficile 630 (FDP_F) (Clostridium difficile 630); assay: SEC; each protein loaded separately at room temperature on a 25 mL Superdex S-200 10/300 GL column; 20 mM Tris-HCl pH 7.5, 18% glycerol, 150 mM NaCl; calibrated with mass standards; data not shown
[2] = molecular target: C-terminal domains of the flavodiiron protein CD1623 from Clostridium difficile 630 (FDP_F_Cter), residues 401-843 (Clostridium difficile 630); assay: as above

stoichiometry N [1] | stoichiometry N [2] | Substance
2 | – | Class F flavodiiron protein CD1623 from Clostridium difficile 630 (FDP_F) (enzyme)
– | 2 | C-terminal domains of the flavodiiron protein CD1623 from Clostridium difficile 630 (FDP_F_Cter), residues 401-843 (domain or fragment)

From article PMC6033852
